According to article PMC4650695:

Assays:
[1] = target: ICP27Δ189 (HSV-1 ICP27 residues 189-512) (Herpes simplex virus 1 (HSV-1)) (UniProt P10238); test: SEC-MALS; 0.5 mL at 1 mg/mL on Superdex 200 10/300GL, 0.75 mL/min in gel filtration buffer (20 mM Tris, 150 mM NaCl, 50 mM L-Arg, 50 mM L-Glu, 50 mM L-Pro, 0.1 mM TCEP, 10 μM ZnCl2, pH 8.5)
[2] = target: ICP27Δ189 (HSV-1 ICP27 residues 189-512) (Herpes simplex virus 1 (HSV-1)) (UniProt P10238); test: AUC; sedimentation velocity, 1 mg/mL in 20 mM HEPES pH 7.4, 150 mM NaCl, 40000 RPM, 20 °C
[3] = target: ICP27Δ215 (HSV-1 ICP27 residues 215-512) (Herpes simplex virus 1 (HSV-1)) (UniProt P10238); test: SEC-MALS; 0.5 mL at 1 mg/mL on Superdex 200 10/300GL, 0.75 mL/min in gel filtration buffer (20 mM Tris, 150 mM NaCl, 50 mM L-Arg, 50 mM L-Glu, 50 mM L-Pro, 0.1 mM TCEP, 10 μM ZnCl2, pH 8.5)
[4] = target: ICP27Δ215 (HSV-1 ICP27 residues 215-512) (Herpes simplex virus 1 (HSV-1)) (UniProt P10238); test: AUC; sedimentation velocity, 1 mg/mL in 20 mM HEPES pH 7.4, 150 mM NaCl, 40000 RPM, 20 °C
[5] = target: ICP27Δ241 (HSV-1 ICP27 C-terminal residues 241-512) (Herpes simplex virus 1 (HSV-1)) (UniProt P10238); test: SEC-MALS; 0.5 mL at 1 mg/mL on Superdex 200 10/300GL, 0.75 mL/min in gel filtration buffer (20 mM Tris, 150 mM NaCl, 50 mM L-Arg, 50 mM L-Glu, 50 mM L-Pro, 0.1 mM TCEP, 10 μM ZnCl2, pH 8.5)
[6] = target: ICP27Δ241 (HSV-1 ICP27 C-terminal residues 241-512) (Herpes simplex virus 1 (HSV-1)) (UniProt P10238); test: AUC; sedimentation velocity, 1 mg/mL in 20 mM HEPES pH 7.4, 150 mM NaCl, 40000 RPM, 20 °C

What does the source list for “ICP27Δ189 (HSV-1 ICP27 residues 189-512) (from UniProt P10238 189-512) (domain or fragment)”?
stoichiometry N [1]: 2; stoichiometry N [2]: 2

“ICP27Δ215 (HSV-1 ICP27 residues 215-512) (from UniProt P10238 215-512) (domain or fragment)” was tested. Which stoichiometry N [3] did it give?
Its stoichiometry N is 2.

And the stoichiometry N [4]?
Its stoichiometry N is 2.

With “ICP27Δ241 (HSV-1 ICP27 C-terminal residues 241-512) (from UniProt P10238 241-512) (domain or fragment)” as the substance, how does the stoichiometry N [5] read?
The stoichiometry N was 2.

And the stoichiometry N [6]?
The stoichiometry N was 2.
